For the experiment, the target named is T1, human Derlin-1 (hDERL1), full length, purified from Expi293F cells (human), Q9BUN8.
T1 chain: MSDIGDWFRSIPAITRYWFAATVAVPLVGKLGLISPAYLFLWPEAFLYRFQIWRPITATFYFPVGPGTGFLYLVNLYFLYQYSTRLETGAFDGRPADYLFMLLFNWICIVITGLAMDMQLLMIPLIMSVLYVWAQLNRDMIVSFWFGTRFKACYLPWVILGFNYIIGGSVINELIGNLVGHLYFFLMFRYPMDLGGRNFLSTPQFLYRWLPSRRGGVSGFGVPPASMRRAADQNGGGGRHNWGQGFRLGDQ
In words: cryo-EM structure. To be noted: remark: other sources report otherwise.

Here are results for one molecule from PMC7929502.

B1: human Derlin-1 (hDERL1), full length, purified from Expi293F cells, Q9BUN8-1 1-251 (natural protein)
chain: MSDIGDWFRSIPAITRYWFAATVAVPLVGKLGLISPAYLFLWPEAFLYRFQIWRPITATFYFPVGPGTGFLYLVNLYFLYQYSTRLETGAFDGRPADYLFMLLFNWICIVITGLAMDMQLLMIPLIMSVLYVWAQLNRDMIVSFWFGTRFKACYLPWVILGFNYIIGGSVINELIGNLVGHLYFFLMFRYPMDLGGRNFLSTPQFLYRWLPSRRGGVSGFGVPPASMRRAADQNGGGGRHNWGQGFRLGDQ
Take B1: the stoichiometry N was determined as 4.

A word on the stoichiometry N: it is the number of molecules, sites or subunits per partner or assembly.
